Experimental findings from patent US20220056119A1 are described below.

For the assay, the target named is activin Type II receptors (ActRIIA and ActRIIB) on A204/CAGAx12-Luc cells. Put plainly: cell-based or functional assay.

B1: Activin B (homodimer of two inhibin betaB subunits), P09529 293-407 (ligand)
chain: GLECDGRTNLCCRQQFFIDFRLIGWNDWIIAPTSYYGNYCEGSCPAYLAGVPGSASSFHTAVVNQYRMRGLNPGTVNSCCIPTKLSTMSMLYFDDEYNIVKRDVPNMIVEECGCA
B1 displayed an activation of the A204/CAGAx12-Luc cell line (Smad 2/3-luciferase reporter), EC50 of 0.047 nM.

B2: Activin A (homodimer of two inhibin betaA subunits), P08476 311-426 (ligand)
chain: GLECDGKVNICCKKQFFVSFKDIGWNDWIIAPSGYHANYCEGECPSHIAGTSGSSLSFHSTVINHYRMRGHSPFANLKSCCVPTKLRPMSMLYYDDGQNIIKKDIQNMIVEECGCS
As for B2, the activation of the A204/CAGAx12-Luc cell line (Smad 2/3-luciferase reporter), EC50 was 0.099 nM.
